This is an account of results in patent US9814672B2, “Echogenic vehicle for clinical delivery of plasminogen activator and other fibrin-binding therapeutics to thrombi” (priority 2007, dated 2017).

Like-named read-outs stand apart in the source and are kept apart here.

Test [1] addresses T1, fibrin (Homo sapiens, UniProt P02671+P02675+P02679).
T1 construct: purchased Calbiochem (EMD Biosciences, Inc., La Jolla, Calif.)
T1 sequence (P02671 36-629 limits assumed): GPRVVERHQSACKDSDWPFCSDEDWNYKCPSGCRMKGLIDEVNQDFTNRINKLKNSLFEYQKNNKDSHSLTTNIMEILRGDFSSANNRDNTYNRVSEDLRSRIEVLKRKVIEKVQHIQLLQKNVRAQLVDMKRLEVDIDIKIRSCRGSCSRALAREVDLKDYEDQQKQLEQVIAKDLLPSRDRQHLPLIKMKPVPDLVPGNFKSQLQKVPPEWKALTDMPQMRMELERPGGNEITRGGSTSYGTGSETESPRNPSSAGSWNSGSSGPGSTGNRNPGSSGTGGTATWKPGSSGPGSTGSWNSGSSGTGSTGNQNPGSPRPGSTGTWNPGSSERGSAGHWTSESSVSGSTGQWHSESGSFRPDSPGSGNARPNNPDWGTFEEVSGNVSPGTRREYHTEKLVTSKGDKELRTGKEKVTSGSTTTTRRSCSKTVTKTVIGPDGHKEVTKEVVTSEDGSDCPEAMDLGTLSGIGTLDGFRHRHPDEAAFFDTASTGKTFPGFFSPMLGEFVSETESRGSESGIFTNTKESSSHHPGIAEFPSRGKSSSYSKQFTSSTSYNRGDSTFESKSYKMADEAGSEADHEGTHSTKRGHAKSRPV
T1 sequence (P02675 45-491 limits assumed): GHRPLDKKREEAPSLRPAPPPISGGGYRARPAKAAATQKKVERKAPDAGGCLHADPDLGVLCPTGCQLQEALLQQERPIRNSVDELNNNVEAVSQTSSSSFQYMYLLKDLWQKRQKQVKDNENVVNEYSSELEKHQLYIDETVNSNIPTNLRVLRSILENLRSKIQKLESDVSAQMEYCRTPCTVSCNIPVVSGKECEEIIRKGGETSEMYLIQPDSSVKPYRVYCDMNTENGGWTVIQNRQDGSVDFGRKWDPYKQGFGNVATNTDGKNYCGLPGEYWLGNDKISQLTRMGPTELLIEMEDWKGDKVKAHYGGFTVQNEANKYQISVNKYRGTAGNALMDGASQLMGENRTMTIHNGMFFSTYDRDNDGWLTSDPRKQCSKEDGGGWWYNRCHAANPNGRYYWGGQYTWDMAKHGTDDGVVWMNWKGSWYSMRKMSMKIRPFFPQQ
T1 sequence (P02679 27-437 isoform P02679-2 limits assumed): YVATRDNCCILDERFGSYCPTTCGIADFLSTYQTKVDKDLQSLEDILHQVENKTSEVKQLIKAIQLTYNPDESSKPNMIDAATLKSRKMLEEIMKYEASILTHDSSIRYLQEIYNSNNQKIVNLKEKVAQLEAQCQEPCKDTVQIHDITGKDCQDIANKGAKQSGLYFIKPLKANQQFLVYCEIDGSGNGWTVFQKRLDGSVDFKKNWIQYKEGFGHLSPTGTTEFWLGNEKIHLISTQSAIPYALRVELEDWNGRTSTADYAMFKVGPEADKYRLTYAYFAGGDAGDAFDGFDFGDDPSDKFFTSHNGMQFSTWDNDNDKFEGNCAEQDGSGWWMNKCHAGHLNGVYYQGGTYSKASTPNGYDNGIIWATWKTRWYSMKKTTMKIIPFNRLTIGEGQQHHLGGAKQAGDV
Nature of the test: Two-stage fibrin pad ELISA, Scatchard and van't Hoff analysis. It is filed as binding. Conditions: for Avidity: Kassoc × no. ligand molecules/liposome; for Kassoc: detergent-treated preparation. The procedure: Added 100 μl 0.2% BSA/PBS to each well and incubated at 37° C. for 1 hour. All subsequent incubations were also at 37° C. Aspirated the wells and washed the plate 3× with PBS-T. Added Activase dilutions (10, 5, 2.5, 1.25, and 0.625 μg/ml PBS-T) to replicate wells ([…]). Incubated for 2 hours. Removed the contents of each well and pooled all samples within each dilution. Stored pooled samples at 4° C. For tPA-ELIP dilutions (in PBS), the third wash before adding the samples was with PBS. Stored the pooled tPA-ELIP samples in polypropylene tubes.
Added monoclonal anti-tPA capture antibody (Ab) (5 μg/ml coating buffer; […]) to rows B, C, E and G of a fresh microplate. Incubated in a humidified chamber at 4° C. overnight. All subsequent incubations were in humidified chambers at 37° C. at volumes of 50 μl/well, followed by aspiration of wells and 3× washes with PBS-T. Blocked all rows with conjugate buffer for 1 hour. Added tPA standards (50, 25, 12.5, 6.25 and 3.13 ng/ml) and pooled sample dilutions (in PBS-T) in duplicate to sample (B, C, E, G) and background (A, D, F, H) wells. Incubated for 2 hours. Added secondary detection Ab (10 μg sheep anti-tPA/ml 0.1% BSA in PBS-T) to all wells and incubated 1 hour, followed by a conjugate incubation (3,000× diluted with conjugate buffer; 1 hour). Added 50 μl of substrate buffer+500 of substrate (1 tablet/5 ml substrate buffer) to each well. Incubated at 37° for 15 minutes. Immediately quenched with 5 μl of 1M sodium hydroxide/well. Read the plate at 405 nm. Determined net absorbance (A405) by subtracting background OD from sample OD (e.g., B4-A4 or E7-F7).
Calculated the undiluted tPA concentrations of each pooled sample from the standard curve. These represented the free fractions ([F]) of the sample dilutions after equilibrium incubation with fibrin. Obtained the bound concentrations ([B]) by subtracting the free values from the total tPA concentration of the starting dilutions. Prepared Scatchard plots by plotting [B] (x-axis) vs. B/F (y-axis). The slope=−Kassoc and the y-intercept=Kassoc[n], where [n] was the concentration of exposed tPA binding sites on the fibrin pads.
Dilutions of untreated, sham-treated (control) and PPACK-treated (tPA(P)) tPA, as well as tPA(P) conjugated to ELIP (tPA(P)-ELIP), were incubated on replicate fibrin pads, prepared in microplate wells according to a modification of the method of Edgell et al. (1996). Human thrombin was added to a solution of 0.5 mg/ml of human fibrinogen in 0.02M phosphate-buffered saline, pH 7.4 (PBS), to a final concentration of 0.125 IU thrombin/ml; 100 μl of this solution was immediately added to each well and incubated at 37° C. for 45 minutes, followed by overnight drying of the plate at 45° C. After incubation with 100 μl/well of 0.2% BSA in PBS for 1 hour, samples (100 μl/well) were incubated for 2 hours at 37° C. For thermodynamic analyses, this incubation was performed at three temperatures (5, 24 and 37° C.). In order to determine the concentration of free tPA remaining in solution after incubation of tPA with fibrin, from which the concentration of bound tPA could be calculated for Scatchard analysis, the contents of duplicate wells were recovered, pooled and subsequently assayed for immunoreactive tPA in a standard quantitative sandwich ELISA.
Briefly, Nunc MaxiSorp microtiter plates were coated with 5 μg/ml of a monoclonal anti-tPA capture antibody (Ab) in 0.05M sodium bicarbonate, pH 9.6, overnight at 4° C. All incubation volumes were 50 μl/well. One-half of wells were left uncoated for determination of nonspecific binding. After aspirating well contents, all wells were blocked with conjugate buffer (1% BSA in 0.05M Tris buffer, pH 8.0, with 0.02% sodium azide) for 1 hour. From this point, all incubations were at 37° C. Each incubation was followed by aspiration of well contents and washes (3×) with PBS-T (PBS with 0.05% Tween 20). […]
In general terms: In an ELISA, binding on a coated surface is turned into a signal by an enzyme label.

The nature of test [2]: tPA enzyme activity after PPACK inactivation, paranitroanilide-substrate method. It is filed as biochemical. Conditions: S.E., n=3. The protocol:
Reconstituted tPA was incubated with a fivefold molar excess of PPACK in 0.2 M L-arginine in 0.05M phosphate buffer, pH 7.2, with 0.01% Tween 20 for 1 hour at room temperature, followed by dialysis against reaction buffer to remove unreacted PPACK. A control preparation was carried through the procedure without PPACK and all procedures involving PPACK were protected from light. Enzyme activity in PPACK-treated and control tPA preparations was measured with a […] paranitroanilide-substrate method (Ranby and Wallen, 1981).

For test [3], the target named is T1, fibrin. Nature of the test: Two-stage fibrin pad ELISA, Scatchard and van't Hoff analysis. Conditions: undiluted fresh-frozen rabbit serum, 37° C.; read-out: binding affinity (KD) in serum.

Broadly, the Kd is the constant that tells how readily two partners part at equilibrium.

On fibrin [1] (competition with tPA samples, Example 12), Fibrinogen [reference compound] returned a cross-reactivity with fibrin of 5%.
As to “Sham (Control): tPA control preparation carried through the inactivation procedure without PPACK [reference compound]”, in test [2], the “Percent Starting Activity” value is listed as 99.8%. Also, the Kd in the test with fibrin [1] (S.E., n=3, read-out: High-Affinity KD @ 37° C.) was 5.92 nM.
Turning to “tPA(P)-ELIP: PPACK-inactivated tPA conjugated by thioether linkage to MPB-ELIP (PC:MPB-PE:DPPG:CH 69:8:8:15); made without detergent or with 0.01% Tween 20”, the Avidity with fibrin [1] (+Tween 20) was found to be 0.151 M^−1/LIP × 10^12; with fibrin [1] (No Detergent) it was 0.480 M^−1/LIP × 10^12. Further, the “ΔS°” value in the test with fibrin [1] (high affinity only) is “+14.7 cal/mole°”. Further, the “ΔG°” value was -11.1 kcal/mol with fibrin [1] (high affinity only, 278 K); -11.5 kcal/mol in the test with fibrin [1] (high affinity only, 297 K); -11.6 kcal/mol with fibrin [1] (high affinity only, 310 K). Also, the Kassoc was 5.83e+08 M⁻¹ in the test with fibrin [1] (high affinity only, 278 K); 3.01e+08 M⁻¹ with fibrin [1] (high affinity only, 297 K); 1.51e+08 M⁻¹ with fibrin [1] (high affinity only, 310 K). Further, in the test with fibrin [1] (high affinity only, van't Hoff plot), the “ΔH°” value is -7.08 kcal/mol. Further, the Kd with fibrin [1] (thiolation buffers: +Tween 20, read-out: KD @ 37° C.) worked out at 6.62 nM; with fibrin [1] (thiolation buffers: No Detergent, read-out: KD @ 37° C.), 1.9 nM; in the test with fibrin [3] it was 3.91 nM.
